Measured values reported in PMC12126490, “The HP1 box of KAP1 organizes HP1α for silencing of endogenous retroviral elements in embryonic stem cells” (Nature Communications, 2025).

Legend:
FLAG-tagged HP1α = experiment: pull-down with Strep-tagged KAP1, Western blot; assay type: binding; details: Strep-tagged full-length KAP1 mutant, HCT116 cells; 3 biological replicates
Protocol: For all AP experiments, HCT116 cells were seeded in 10 cm plates (~4 million cells per dish) and transfected with Strep- and Flag-tagged plasmids one-day after seeding cells. Two days post-transfection, cells were collected in PBS and lysed with passive lysis buffer (PLB: 50 mM Tris-HCl pH 7.5, 150 mM NaCl, 1 mM DTT, 1.0% NP-40, 1.5 mM MgCl2, 5% v/v glycerol, and 1X complete, Mini EDTA-free, EASYpack Protease Inhibitor [Roche, Cat# 4693159001]) by resuspending cells in PLB, vortexing briefly, nutating for 15 min at 4 °C, and centrifuging the lysate (10,000 × g, 10 min, 4 °C). Strep-Tactin superflow resin (IBA Life Sciences, Cat# 2-1208-010), was equilibrated by centrifuging beads (2000 RPM, 2 min, 4 °C), removing storage buffer, and washing three times with PLB with nutation for 5 min at 4 °C. Beads were volumed back to their original volume, and 40 µL beads were used per AP and bound for 2 h. Beads were then washed with AP Wash Buffer (50 mM Tris-HCl pH 7.5, 250 mM NaCl, 1 mM DTT, 0.2% NP-40, 1.5 mM MgCl2, and 5% v/v glycerol), and eluted with Strep-tag Elution Buffer containing D-Desthiobiotin (IBA Life Sciences, Cat# 2-1000-025). […]
Tryptophan fluorescence data are presented as average of three independent measurements ±SD. […]

[1] = test system: endogenous retroelements in KAP1 cKO ESCs; experiment: ATAC-seq chromatin accessibility; assay type: cell-based, mouse; details: exogenous expression in KAP1 cKO ESCs, 2 μg/mL doxycycline, 2 μM 4-OHT 48 h
Protocol: ESCs were maintained under standard conditions on gelatin-coated plates at 37 °C at 5% CO2 in Knockout DMEM (Thermo Fisher) supplemented with NEAA, GlutaMAX, penicillin/streptomycin (Thermo Fisher), 15% ESC-screened fetal bovine serum (Hyclone), 0.1 mM 2-mercaptoethanol (Fisher), and leukemia-inhibitory factor (LIF). Generation of KAP1 cKO ESCs has been described previously. The piggybac transposon system was used to stably integrate transgenic Flag-tagged WT or V488E mutant KAP1 under control of an rtTA promoter (Systems Biosciences, PB-TRE-EGFP-EF1a-rtTA) into the inducible KAP1 cKO ESCs. Exogenous expression of WT or V488E mutant KAP1 was induced with 2 μg/mL doxycycline for 48 h and maintained in doxycycline prior to endogenous KAP1 deletion. KAP1 deletion was induced with 2 μM 4-OHT (Sigma) treatment for 48 h. […]
The modified ATAC-sequencing protocol Omni-ATAC was performed. […] Number of further PCR cycles required was determined using KAPA Library Quantification Kit (KK4854). […]
Quality of datasets was assessed using the FastQC tool. Raw reads were adapter and quality trimmed using Trimgalore. Trimmed reads were aligned to the mouse reference genome (mm10) with Bowtie2. Multimapping reads were randomly assigned. Optical duplicate reads were filtered using Picard (https://broadinstitute.github.io/picard/). Reads which mapped to the mitochondrial genome were removed with Samtools. […]

B1: V488E KAP1: V488E mutant of KAP1, impaired in binding to HP1 (protein)
chain: MAASAAAASAAAASAASGSPGPGEGSAGGEKRSTAPSAAASASASAAASSPAGGGAEALELLEHCGVCRERLRPEREPRLLPCLHSACSACLGPAAPAAANSSGDGGAAGDGTVVDCPVCKQQCFSKDIVENYFMRDSGSKAATDAQDANQCCTSCEDNAPATSYCVECSEPLCETCVEAHQRVKYTKDHTVRSTGPAKSRDGERTVYCNVHKHEPLVLFCESCDTLTCRDCQLNAHKDHQYQFLEDAVRNQRKLLASLVKRLGDKHATLQKSTKEVRSSIRQVSDVQKRVQVDVKMAILQIMKELNKRGRVLVNDAQKVTEGQQERLERQHWTMTKIQKHQEHILRFASWALESDNNTALLLSKKLIYFQLHRALKMIVDPVEPHGEMKFQWDLNAWTKSAEAFGKIVAERPGTNSTGPAPMAPPRAPGPLSKQGSGSSQPMEVQEGYGFGSGDDPYSSAEPHVSGVKRSRSGEGEVSGLMRKVPRESLERLDLDLTADSQPPVFKVFPGSTTEDYNLIVIERGAAAAATGQPGTAPAGTPGAPPLAGMAIVKEEETEAAIGAPPTATEGPETKPVLMALAEGPGAEGPRLASPSGSTSSGLEVVAPEGTSAPGGGPGTLDDSATICRVCQKPGDLVMCNQCEFCFHLDCHLPALQDVPGEEWSCSLCHVLPDLKEEDGSLSLDGADSTGVVAKLSPANQRKCERVLLALFCHEPCRPLHQLATDSTFSLDQPGGTLDLTLIRARLQEKLSPPYSSPQEFAQDVGRMFKQFNKLTEDKADVQSIIGLQRFFETRMNEAFGDTKFSAVLVEPPPMSLPGAGLSSQELSGGPGDGP
modifications: left off: Strep, end not stated, kept
pull-down of FLAG-tagged HP1α (FLAG-tagged HP1α): eliminated binding of exogenously expressed FLAG-tagged HP1α
restoration of closed chromatin at IAPEz, MERVK10C and ETn [1]: could not restore a closed chromatin state to the same extent observed with expression of WT KAP1
